These are literature values, as cited in paper PMC3045798.

This data set addresses Cys25 (UniProt position 158, GSCGSCWAFSA).

For the substance “Papain (Carica papaya (not stated in the article))”, the pKa result is on record as “around 2.5 to 3.5”.
